Assay results from publication PMC2676576 (Structure (London, England : 1993), 2009).

B1: his-tagged STAM VHS domain (residues 1-143) (domain or fragment)
chain: not shown
B2: Hrs(1-557) of the ΔCT construct (domain or fragment, human, UniProt O14964 1-557, looked up)
chain: MGRGSGTFERLLDKATSQLLLETDWESILQICDLIRQGDTQAKYAVNSIKKKVNDKNPHVALYALEVMESVVKNCGQTVHDEVANKQTMEELKDLLKRQVEVNVRNKILYLIQAWAHAFRNEPKYKVVQDTYQIMKVEGHVFPEFKESDAMFAAERAPDWVDAEECHRCRVQFGVMTRKHHCRACGQIFCGKCSSKYSTIPKFGIEKEVRVCEPCYEQLNRKAEGKATSTTELPPEYLTSPLSQQSQLPPKRDETALQEEEELQLALALSQSEAEEKERLRQKSTYTSYPKAEPMPSASSAPPASSLYSSPVNSSAPLAEDIDPELARYLNRNYWEKKQEEARKSPTPSAPVPLTEPAAQPGEGHAAPTNVVENPLPETDSQPIPPSGGPFSEPQFHNGESEESHEQFLKALQNAVTTFVNRMKSNHMRGRSITNDSAVLSLFQSINGMHPQLLELLNQLDERRLYYEGLQDKLAQIRDARGALSALREEHREKLRRAAEEAERQRQIQLAQKLEIMRQKKQEYLEVQRQLAIQRLQEQEKERQMRLEQQKQTVQMR

Legend:
bovine ubiquitin = bovine ubiquitin (bovine, UniProt P0CG53 1-76); assay: SPR
[1] = molecular target: STAM(10-390) of the ΔCT construct (human, UniProt Q92783 10-390); assay: AUC
Chain of STAM(10-390) of the ΔCT construct (Q92783 10-390, stated change not applied): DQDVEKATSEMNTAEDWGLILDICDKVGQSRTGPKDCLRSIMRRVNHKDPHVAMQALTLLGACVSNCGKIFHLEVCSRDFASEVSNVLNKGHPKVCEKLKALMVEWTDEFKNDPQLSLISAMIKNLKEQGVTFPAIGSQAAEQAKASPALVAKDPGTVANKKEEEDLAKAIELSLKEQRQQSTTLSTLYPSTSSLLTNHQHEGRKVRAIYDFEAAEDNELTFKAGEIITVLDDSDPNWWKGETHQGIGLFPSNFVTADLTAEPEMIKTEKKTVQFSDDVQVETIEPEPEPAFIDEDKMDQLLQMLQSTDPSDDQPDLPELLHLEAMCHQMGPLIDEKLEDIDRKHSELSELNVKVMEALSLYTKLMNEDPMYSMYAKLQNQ

| Binder | Kd (bovine ubiquitin) | stoichiometry N [1] |
| --- | --- | --- |
| B1 | 157 µM |  |
| B2 |  | 1 Hrs:STAM |
